Assay results reported in article PMC11924945 (2024).

Molecular target: human CD47 (19 to 135) tagged with human immunoglobulin G1 Fc (N297A) (human, UniProt Q08722 19-135, biotin (NHS-biotin, 10-fold molar excess) in SPR)
Assay: SPR

human CD47 (19 to 135) tagged with human immunoglobulin G1 Fc (N297A), sequence (Q08722 19-135, stated change not applied): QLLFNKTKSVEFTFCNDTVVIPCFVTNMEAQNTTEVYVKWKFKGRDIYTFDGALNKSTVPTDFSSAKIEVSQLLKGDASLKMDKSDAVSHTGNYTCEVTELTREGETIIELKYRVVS

B1: Aedes aegypti Nest1 (neutrophil-stimulating factor 1), recombinant, amino acids 22 to 316 (natural protein)
chain: KPTQGSCTLTDEDISDIKSAVQKASKAAVNDIVLDPTLIDKCPMLEKITASLKSVATEIVQMRDSAISTDQVDQLKQNFEDQVNQIVKSRDIFEKQSGTQATKEHGEMLERMTALQVKVTELEQQIAKQTASMYEDMAELIFQRLQMNSTESVRSYTKHMMEEKLEELMNKLETNYRIYLGALRFLNHMNDQELIGKVFDGILKRLGDMKADSDDVKENGRNLLVNLLCWTVNNDFLGKKYKERQVDLYRMALKFYPKTYEKAANEADVRSRQFCEENFPANLITWFAVSWNDRG
modifications: biotin (BirA500 kit) in the yeast library screen
koff: 0.0121 s⁻¹
